{"source": "paper PMC3379994", "about": "“Comprehensive Analysis of Interactions between the Src-Associated Protein in Mitosis of 68 kDa and the Human Src-Homology 3 Proteome” (PLoS ONE, 2012)", "origin": "cited, not measured here", "target": "Nef (Human immunodeficiency virus 1) (UniProt P04324)", "assay": "SPR"}
{"substance": "Hck SH3 (from UniProt P08631)", "values": [{"measurement": "Kd", "value": 250, "unit": "nM"}]}
